Target: active RhoA, P61586
Sequence (P61586 1-190): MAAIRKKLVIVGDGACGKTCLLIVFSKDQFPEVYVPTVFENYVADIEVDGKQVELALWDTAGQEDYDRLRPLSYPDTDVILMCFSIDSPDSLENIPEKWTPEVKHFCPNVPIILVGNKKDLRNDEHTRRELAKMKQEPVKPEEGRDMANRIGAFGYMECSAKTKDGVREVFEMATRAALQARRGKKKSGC

B1: GEF-H1 (Rho guanine nucleotide exchange factor H1) (protein)
chain: MKEAKDARYTNGHLFTTISVSGMTMCYACNKSITAKEALICPTCNVTIHNRCKDTLANCTKVKQKQQKAALLKNNTALQSVSLRSKTTIRERPSSAIYPSDSFRQSLLGSRRGRSSLSLAKSVSTTNIAGHFNDESPLGLRRILSQSTDSLNMRNRTLSVESLIDEEVIYSELMSDFEMDEKDFAADSWSLAVDSSFLQQHKKEVMKQQDVIYELIQTELHHVRTLKIMTRLFRTGMLEELHLEPGVVQGLFPCVDELSDIHTRFLSQLLERRRQALCPGSTRNFVIHRLGDLLISQFSGPSAEQMCKTYSEFCSRHSKALKLYKELYARDKRFQQFIRKVTRPAVLKRHGVQECILLVTQRITKYPLLISRILQHSHGIEEERQDLTTALGLVKELLSNVDEGIYQLEKGARLQEIYNRMDPRAQTPVPGKGPFGREELLRRKLIHDGCLLWKTATGRFKDVLVLLMTDVLVFLQEKDQKYIFPTLDKPSVVSLQNLIVRDIANQEKGMFLISAAPPEMYEVHTASRDDRSTWIRVIQQSVRTCPSREDFPLIETEDEAYLRRIKMELQQKDRALVELLREKVGLFAEMTHFQAEEDGGSGMALPTLPRGLFRSESLESPRGERLLQDAIREVEGLKDLLVGPGVELLLTPREPALPLEPDSGGNTSPGVTANGEARTFNGSIELCRADSDSSQRDRNGNQLRSPQEEALQRLVNLYGLLHGLQAAVAQQDTLMEARFPEGPERREKLCRANSRDGEAGRAGAAPVAPEKQATELALLQRQHALLQEELRRCRRLGEERATEAGSLEARLRESEQARALLEREAEEARRQLAALGQTEPLPAEAPWARRPVDPRRRSLPAGDALYLSFNPPQPSRGTDRLDLPVTTRSVHRNFEDRERQELGSPEERLQDSSDPDTGSEEEGSSRLSPPHSPRDFTRMQDIPEETESRDGEAVASES
RhoA activity (active RhoA pulled down with GST-Rhotekin-RBD, western blot): the RhoA activity increased by at least 5 times
